Assay results reported in the supplement of paper PMC10065799, “High-throughput profiling of sequence recognition by tyrosine kinases and SH2 domains using bacterial peptide display” (eLife, 2023).

Test system: c-Src
Test: phosphorylation enrichment, bacterial display (enrichment ratio); higher = better substrate or ligand; peptides without Tyr show the background
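Also: 11-residue human phosphosite peptides and single-mutation variants displayed on the E. coli surface, counted by deep sequencing, each peptide's frequency after selection divided by its frequency in the unselected input library; frequency after pTyr selection over input frequency; kinase dosed for 20-30% of maximal phosphorylation in three min.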

Row | Sequence | phosphorylation enrichment
1 | KLGDVYVNDAF [PGK1_Y161] | 0.423
2 | EFFDGYWEFSV [ITGA2B_Y265_G267E_YF] | 5.58
3 | LKFAIYFEARE [LAMA2_Y1258_YF] | 0.345
4 | NRLTDYYELLL [BBS10_Y536_P539L] | 1.69
5 | WDLSEYSYKDP [ITGA3_Y237] | 0.916
6 | CTTIHYNFMCS [TP53_Y234_N239S_YF] | 0.571
7 | HGDDDYDDPEL [CLNK_Y69_S65G] | 0.477
8 | MSPPGYKLVNG [GJA1_Y286_T290N] | 0.461
9 | PLDVEYFTLQI [TP53_Y327_G325V] | 2.72
10 | DENRFYTRAAS [RPS19_Y54_W52R] | 0.494
11 | SVVVPYEPHEV [TP53_Y220_P223H] | 0.513
12 | LSSVSYVGCSL [ADGRD1_Y571_I569V] | 1.12
13 | LLVVLNKYRCY [PSEN1_Y154_Y154N] | 0.577
14 | ALETLYKKAVK [CC2D2A_Y381_E376A] | 0.307
15 | QITQVYGFFHE [PPP2CA_Y127_D131H_YF] | 9.89
16 | LEQQKYTVTVD [IKBKB_Y199] | 0.593
17 | LTERSYSFVTT [ACTA1_Y200_G199S] | 0.856

Row | Sequence | phosphorylation enrichment
18 | EDKSIYRRGAR [PRKCI_Y125] | 0.593
19 | FISLIYTNFEV [GSTP1_Y109_A114V_YF] | 5.5
20 | PDDPNYSLVDD [PSTPIP2_Y323] | 0.603
21 | PVQAAYQNVVA [HBB_Y131_K133N] | 0.49
22 | CTTVHYNYMCN [TP53_Y234_I232V] | 0.492
23 | QMVRMYASSYM [AVPR2_Y124_G122R] | 0.464
24 | FAELVYTSFWH [ASS1_Y322_G324S] | 6.82
25 | APQFTYTQGGQ [FLNA_Y1763_A1764T_YF] | 0.42
26 | FASALYRQRRS [FGF11_Y162_YF] | 0.577
27 | EKSREYHRLYE [PIK3R1_Y463_D464H] | 0.519
28 | RRVLVYGGRGA [QDPR_Y16] | 0.674
29 | ACLSLYGGFVE [MVD_Y164_R161L] | 4.75
30 | SENFTYIWWLN [PSG4_Y271_K267E_YF] | 0.355
31 | CTTIHQNYMCN [TP53_Y234_Y234Q] | 0.414
32 | KWHREYNSKYV [RICTOR_Y835] | 0.294
33 | SSEYHCVGGFY [CTSC_Y347_Y347C] | 1.82

Test system: c-Abl (mouse)
Test: as above

Row | Sequence | phosphorylation enrichment
34 | KLGDVYVNDAF [PGK1_Y161] | 0.574
35 | EFFDGYWEFSV [ITGA2B_Y265_G267E_YF] | 1.19
36 | LKFAIYFEARE [LAMA2_Y1258_YF] | 1.06
37 | NRLTDYYELLL [BBS10_Y536_P539L] | 1.15
38 | WDLSEYSYKDP [ITGA3_Y237] | 0.614
39 | CTTIHYNFMCS [TP53_Y234_N239S_YF] | 0.548
40 | HGDDDYDDPEL [CLNK_Y69_S65G] | 0.745
41 | MSPPGYKLVNG [GJA1_Y286_T290N] | 0.52
42 | PLDVEYFTLQI [TP53_Y327_G325V] | 1.11
43 | DENRFYTRAAS [RPS19_Y54_W52R] | 0.684
44 | SVVVPYEPHEV [TP53_Y220_P223H] | 0.803
45 | LSSVSYVGCSL [ADGRD1_Y571_I569V] | 1.35
46 | LLVVLNKYRCY [PSEN1_Y154_Y154N] | 0.96
47 | ALETLYKKAVK [CC2D2A_Y381_E376A] | 0.463
48 | QITQVYGFFHE [PPP2CA_Y127_D131H_YF] | 1.14
49 | LEQQKYTVTVD [IKBKB_Y199] | 0.634
50 | LTERSYSFVTT [ACTA1_Y200_G199S] | 0.889

Row | Sequence | phosphorylation enrichment
51 | EDKSIYRRGAR [PRKCI_Y125] | 0.644
52 | FISLIYTNFEV [GSTP1_Y109_A114V_YF] | 3.47
53 | PDDPNYSLVDD [PSTPIP2_Y323] | 0.8
54 | PVQAAYQNVVA [HBB_Y131_K133N] | 0.591
55 | CTTVHYNYMCN [TP53_Y234_I232V] | 0.557
56 | QMVRMYASSYM [AVPR2_Y124_G122R] | 0.675
57 | FAELVYTSFWH [ASS1_Y322_G324S] | 14
58 | APQFTYTQGGQ [FLNA_Y1763_A1764T_YF] | 0.444
59 | FASALYRQRRS [FGF11_Y162_YF] | 0.563
60 | EKSREYHRLYE [PIK3R1_Y463_D464H] | 0.52
61 | RRVLVYGGRGA [QDPR_Y16] | 0.575
62 | ACLSLYGGFVE [MVD_Y164_R161L] | 1.46
63 | SENFTYIWWLN [PSG4_Y271_K267E_YF] | 0.96
64 | CTTIHQNYMCN [TP53_Y234_Y234Q] | 0.695
65 | KWHREYNSKYV [RICTOR_Y835] | 0.461
66 | SSEYHCVGGFY [CTSC_Y347_Y347C] | 7.61

Biological target: FGFR1 (UniProt P11362)
Test: as above

FGFR1, sequence (P11362 whole entry, looked up): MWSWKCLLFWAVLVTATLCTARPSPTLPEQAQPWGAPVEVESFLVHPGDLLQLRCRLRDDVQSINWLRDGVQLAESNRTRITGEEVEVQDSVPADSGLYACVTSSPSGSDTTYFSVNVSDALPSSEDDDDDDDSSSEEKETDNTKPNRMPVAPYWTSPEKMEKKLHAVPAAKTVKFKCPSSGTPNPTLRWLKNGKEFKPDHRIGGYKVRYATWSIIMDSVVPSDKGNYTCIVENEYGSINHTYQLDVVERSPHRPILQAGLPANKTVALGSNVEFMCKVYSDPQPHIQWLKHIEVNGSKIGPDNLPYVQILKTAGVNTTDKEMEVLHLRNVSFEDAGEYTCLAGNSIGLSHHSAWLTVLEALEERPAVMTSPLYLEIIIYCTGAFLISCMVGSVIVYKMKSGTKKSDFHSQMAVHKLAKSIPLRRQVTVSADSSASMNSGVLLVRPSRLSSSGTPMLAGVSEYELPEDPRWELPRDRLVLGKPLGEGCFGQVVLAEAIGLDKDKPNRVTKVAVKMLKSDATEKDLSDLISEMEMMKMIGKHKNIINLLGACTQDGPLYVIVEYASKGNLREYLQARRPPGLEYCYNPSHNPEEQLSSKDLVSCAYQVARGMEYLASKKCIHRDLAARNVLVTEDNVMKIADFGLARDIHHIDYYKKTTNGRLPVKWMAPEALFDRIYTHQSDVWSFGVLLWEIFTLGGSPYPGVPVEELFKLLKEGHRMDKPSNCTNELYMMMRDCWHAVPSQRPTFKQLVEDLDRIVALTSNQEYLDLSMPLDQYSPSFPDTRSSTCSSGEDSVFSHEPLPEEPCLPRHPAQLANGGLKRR

Row | Sequence | phosphorylation enrichment
67 | KLGDVYVNDAF [PGK1_Y161] | 0.557
68 | EFFDGYWEFSV [ITGA2B_Y265_G267E_YF] | 8.09
69 | LKFAIYFEARE [LAMA2_Y1258_YF] | 1.41
70 | NRLTDYYELLL [BBS10_Y536_P539L] | 11.9
71 | WDLSEYSYKDP [ITGA3_Y237] | 0.513
72 | CTTIHYNFMCS [TP53_Y234_N239S_YF] | 0.572
73 | HGDDDYDDPEL [CLNK_Y69_S65G] | 0.91
74 | MSPPGYKLVNG [GJA1_Y286_T290N] | 0.58
75 | PLDVEYFTLQI [TP53_Y327_G325V] | 7.84
76 | DENRFYTRAAS [RPS19_Y54_W52R] | 0.515
77 | SVVVPYEPHEV [TP53_Y220_P223H] | 0.542
78 | LSSVSYVGCSL [ADGRD1_Y571_I569V] | 0.949
79 | LLVVLNKYRCY [PSEN1_Y154_Y154N] | 0.73
80 | ALETLYKKAVK [CC2D2A_Y381_E376A] | 0.405
81 | QITQVYGFFHE [PPP2CA_Y127_D131H_YF] | 0.647
82 | LEQQKYTVTVD [IKBKB_Y199] | 0.647
83 | LTERSYSFVTT [ACTA1_Y200_G199S] | 0.973

Row | Sequence | phosphorylation enrichment
84 | EDKSIYRRGAR [PRKCI_Y125] | 0.435
85 | FISLIYTNFEV [GSTP1_Y109_A114V_YF] | 0.839
86 | PDDPNYSLVDD [PSTPIP2_Y323] | 1.06
87 | PVQAAYQNVVA [HBB_Y131_K133N] | 0.699
88 | CTTVHYNYMCN [TP53_Y234_I232V] | 0.52
89 | QMVRMYASSYM [AVPR2_Y124_G122R] | 0.622
90 | FAELVYTSFWH [ASS1_Y322_G324S] | 5.31
91 | APQFTYTQGGQ [FLNA_Y1763_A1764T_YF] | 0.482
92 | FASALYRQRRS [FGF11_Y162_YF] | 0.668
93 | EKSREYHRLYE [PIK3R1_Y463_D464H] | 0.455
94 | RRVLVYGGRGA [QDPR_Y16] | 0.357
95 | ACLSLYGGFVE [MVD_Y164_R161L] | 0.681
96 | SENFTYIWWLN [PSG4_Y271_K267E_YF] | 0.543
97 | CTTIHQNYMCN [TP53_Y234_Y234Q] | 0.463
98 | KWHREYNSKYV [RICTOR_Y835] | 0.37
99 | SSEYHCVGGFY [CTSC_Y347_Y347C] | 7.73

Test system: AncSZ
Test: as above

Row | Sequence | phosphorylation enrichment
100 | KLGDVYVNDAF [PGK1_Y161] | 0.734
101 | EFFDGYWEFSV [ITGA2B_Y265_G267E_YF] | 1.98
102 | LKFAIYFEARE [LAMA2_Y1258_YF] | 1.45
103 | NRLTDYYELLL [BBS10_Y536_P539L] | 1.64
104 | WDLSEYSYKDP [ITGA3_Y237] | 1.85
105 | CTTIHYNFMCS [TP53_Y234_N239S_YF] | 0.846
106 | HGDDDYDDPEL [CLNK_Y69_S65G] | 1.91
107 | MSPPGYKLVNG [GJA1_Y286_T290N] | 0.429
108 | PLDVEYFTLQI [TP53_Y327_G325V] | 2.47
109 | DENRFYTRAAS [RPS19_Y54_W52R] | 1.01
110 | SVVVPYEPHEV [TP53_Y220_P223H] | 1.05
111 | LSSVSYVGCSL [ADGRD1_Y571_I569V] | 1.2
112 | LLVVLNKYRCY [PSEN1_Y154_Y154N] | 1.34
113 | ALETLYKKAVK [CC2D2A_Y381_E376A] | 0.559
114 | QITQVYGFFHE [PPP2CA_Y127_D131H_YF] | 1.67
115 | LEQQKYTVTVD [IKBKB_Y199] | 1.21
116 | LTERSYSFVTT [ACTA1_Y200_G199S] | 0.951

Row | Sequence | phosphorylation enrichment
117 | EDKSIYRRGAR [PRKCI_Y125] | 0.674
118 | FISLIYTNFEV [GSTP1_Y109_A114V_YF] | 2.18
119 | PDDPNYSLVDD [PSTPIP2_Y323] | 2.13
120 | PVQAAYQNVVA [HBB_Y131_K133N] | 0.931
121 | CTTVHYNYMCN [TP53_Y234_I232V] | 0.816
122 | QMVRMYASSYM [AVPR2_Y124_G122R] | 1.31
123 | FAELVYTSFWH [ASS1_Y322_G324S] | 2.31
124 | APQFTYTQGGQ [FLNA_Y1763_A1764T_YF] | 0.602
125 | FASALYRQRRS [FGF11_Y162_YF] | 0.689
126 | EKSREYHRLYE [PIK3R1_Y463_D464H] | 0.538
127 | RRVLVYGGRGA [QDPR_Y16] | 1.1
128 | ACLSLYGGFVE [MVD_Y164_R161L] | 1.67
129 | SENFTYIWWLN [PSG4_Y271_K267E_YF] | 1.47
130 | CTTIHQNYMCN [TP53_Y234_Y234Q] | 0.735
131 | KWHREYNSKYV [RICTOR_Y835] | 0.461
132 | SSEYHCVGGFY [CTSC_Y347_Y347C] | 2.32
